Results on five substances are retold here after the supplement of paper PMC5998384.

Data set [1] has as its system HeLa Kyoto. The data set can be described thus: thermal stability score vs G1/S (z-score of summed log2 fold changes over temperatures); higher = more thermally stable than in G1/S.
For data set [2], the system named is HeLa Kyoto. The experiment in a line: solubility in G1/S (NP-40 vs SDS abundance) (log2 ratio); higher = more soluble. To be noted: cell cycle stage: G1/S.
Data set [3] relates to HeLa Kyoto. The experiment in a line: melting temperature (median over replicates), in situ; higher = more thermally stable.
The test system of data set [4] is HeLa Kyoto. The experiment in a line: solubility change mitosis vs G1/S (difference of NP-40 vs SDS log2 ratios) (log2 ratio difference); higher = more soluble in mitosis.
The mark [5] stands for this setting: cell cycle stage: early G1 (4.5 h after nocodazole release).
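Wherever melting temperature (median over replicates), in situ is given: HeLa Kyoto cells synchronized by double thymidine or nocodazole block, proteins quantified by TMT10plex mass spectrometry, three independent biological replicates.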
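Wherever solubility change mitosis vs G1/S (difference of NP-40 vs SDS log2 ratios) is given: synchronized HeLa Kyoto cells (double thymidine block for G1/S, nocodazole release for mitosis), protein amounts in NP-40 versus SDS lysates quantified by mass spectrometry, three biological replicates.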
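Wherever solubility in G1/S (NP-40 vs SDS abundance) is given: HeLa Kyoto cells arrested at G1/S by double thymidine block, proteins quantified by TMT10plex mass spectrometry in mild NP-40 versus SDS extracts, three biological replicates.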
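Wherever thermal stability score vs G1/S (z-score of summed log2 fold changes over temperatures) is given: synchronized HeLa Kyoto cells, proteins quantified by TMT10plex mass spectrometry, three biological replicates, mitosis taken 0.5 h after nocodazole release, G1/S directly after double thymidine block.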

In the case of “MTVARPSVPAALPLLGELPRLLLLVLLCLPAVWGDCGLPPDVPNAQPALEGRTSFPEDTVITYKCEESFVKIPGEKDSVICLKGSQWSDIEEFCNRSCEVPTRLNSASLKQPYITQNYFPVGTVVEYECRPGYRREPSLSPKLTCLQNLKWSTAVEFCKKKSCPNPGEIRNGQIDVPGGILFGATISFSCNTGYKLFGSTSSFCLISGSSVQWSDPLPECREIYCPAPPQIDNGIIQGERDHYGYRQSVTYACNKGFTMIGEHSIYCTVNNDEGEWSGPPPECRGKSLTSKVPPTVQKPTTVNVPTTEVSPTSQKTTTKTTTPNAQATRSTPVSRTTKHFHETTPNKGSGTTSGTTRLLSGHTCFTLTGLLGTLVTMGLLT [CD55]”, the thermal stability score in data set [1] (setting [5]) was -1.88; in data set [1] (cell cycle stage: mitosis), -1.77. For the same substance, in data set [2], the “solubility in G1/S (log2)” value is -0.786. Moreover, the melting temperature is 63.5 °C in data set [3] (cell cycle stage: G1/S) and 63.9 °C in data set [3] (cell cycle stage: mitosis). Further, the “solubility change mitosis (log2)” value in data set [4] was -0.0285.

Take MUC16: the thermal stability score in data set [1] (setting [5]) was -2.6; in data set [1] (cell cycle stage: mitosis), -5.24. Besides, in data set [2], the “solubility in G1/S (log2)” value is -0.172. Moreover, the melting temperature in data set [3] (cell cycle stage: G1/S) and in data set [3] (cell cycle stage: mitosis) was 53.5 °C throughout. Moreover, the “solubility change mitosis (log2)” value in data set [4] was -0.177.

For “MVAPGSVTSRLGSVFPFLLVLVDLQYEGAECGVNADVEKHLELGKKLLAAGQLADALSQFHAAVDGDPDNYIAYYRRATVFLAMGKSKAALPDLTKVIQLKMDFTAARLQRGHLLLKQGKLDEAEDDFKKVLKSNPSENEEKEAQSQLIKSDEMQRLRSQALNAFGSGDYTAAIAFLDKILEVCVWDAELRELRAECFIKEGEPRKAISDLKAASKLKNDNTEAFYKISTLYYQLGDHELSLSEVRECLKLDQDHKRCFAHYKQVKKLNKLIESAEELIRDGRYTDATSKYESVMKTEPSIAEYTVRSKERICHCFSKDEKPVEAIRVCSEVLQMEPDNVNALKDRAEAYLIEEMYDEAIQDYETAQEHNENDQQIREGLEKAQRLLKQSQKRDYYKILGVKRNAKKQEIIKAYRKLALQWHPDNFQNEEEKKKAEKKFIDIAAAKEVLSDPEMRKKFDDGEDPLDAESQQGGGGNPFHRSWNSWQGFNPFSSGGPFRFKFHFN [DNAJC3]”, the values for the thermal stability score in data set [1] (setting [5]) and in data set [1] (cell cycle stage: mitosis) were 5 and 3.84, respectively. Further, the “solubility in G1/S (log2)” value in data set [2] was 0.202. The melting temperature is 53.3 °C in data set [3] (cell cycle stage: G1/S) and 54.4 °C in data set [3] (cell cycle stage: mitosis). In data set [4], the “solubility change mitosis (log2)” value was -0.0724.

As for “MVAPVLETSHVFCCPNRVRGVLNWSSGPRGLLAFGTSCSVVLYDPLKRVVVTNLNGHTARVNCIQWICKQDGSPSTELVSGGSDNQVIHWEIEDNQLLKAVHLQGHEGPVYAVHAVYQRRTSDPALCTLIVSAAADSAVRLWSKKGPEVMCLQTLNFGNGFALALCLSFLPNTDVPILACGNDDCRIHIFAQQNDQFQKVLSLCGHEDWIRGVEWAAFGRDLFLASCSQDCLIRIWKLYIKSTSLETQDDDNIRLKENTFTIENESVKIAFAVTLETVLAGHENWVNAVHWQPVFYKDGVLQQPVRLLSASMDKTMILWAPDEESGVWLEQVRVGEVGGNTLGFYDCQFNEDGSMIIAHAFHGALHLWKQNTVNPREWTPEIVISGHFDGVQDLVWDPEGEFIITVGTDQTTRLFAPWKRKDQSQVTWHEIARPQIHGYDLKCLAMINRFQFVSGADEKVLRVFSAPRNFVENFCAITGQSLNHVLCNQDSDLPEGATVPALGLSNKAVFQGDIASQPSDEEELLTSTGFEYQQVAFQPSILTEPPTEDHLLQNTLWPEVQKLYGHGYEIFCVTCNSSKTLLASACKAAKKEHAAIILWNTTSWKQVQNLVFHSLTVTQMAFSPNEKFLLAVSRDRTWSLWKKQDTISPEFEPVFSLFAFTNKITSVHSRIIWSCDWSPDSKYFFTGSRDKKVVVWGECDSTDDCIEHNIGPCSSVLDVGGAVTAVSVCPVLHPSQRYVVAVGLECGKICLYTWKKTDQVPEINDWTHCVETSQSQSHTLAIRKLCWKNCSGKTEQKEAEGAEWLHFASCGEDHTVKIHRVNKCAL [ELP2]”, the thermal stability score in data set [1] (setting [5]) was -0.251; in data set [1] (cell cycle stage: mitosis), -1.61. The “solubility in G1/S (log2)” value in data set [2] is -0.174. For the same substance, the melting temperature in data set [3] (cell cycle stage: G1/S) was determined as 51.7 °C; in data set [3] (cell cycle stage: mitosis), 51.4 °C. For the same substance, in data set [4], the “solubility change mitosis (log2)” value is -0.181.

Turning to “MVDKKLVVVFGGTGAQGGSVARTLLEDGTFKVRVVTRNPRKKAAKELRLQGAEVVQGDQDDQVIMELALNGAYATFIVTNYWESCSQEQEVKQGKLLADLARRLGLHYVVYSGLENIKKLTAGRLAAAHFDGKGEVEEYFRDIGVPMTSVRLPCYFENLLSHFLPQKAPDGKSYLLSLPTGDVPMDGMSVSDLGPVVLSLLKMPEKYVGQNIGLSTCRHTAEEYAALLTKHTRKVVHDAKMTPEDYEKLGFPGARDLANMFRFYALRPDRDIELTLRLNPKALTLDQWLEQHKGDFNLL [NMRAL1]”, the thermal stability score in data set [1] (setting [5]) was found to be 4.25; in data set [1] (cell cycle stage: mitosis), 3.59. In addition, the “solubility in G1/S (log2)” value in data set [2] came out at 0.417. In addition, the melting temperature in data set [3] (cell cycle stage: G1/S) is 48.9 °C; in data set [3] (cell cycle stage: mitosis), 49.3 °C. Also, the “solubility change mitosis (log2)” value in data set [4] is -0.127.
